Values of other authors in publication PMC6082625.
Like-named read-outs stand apart in the source and are kept apart here.

Assays:
[1] = target: Hsp90 (Homo sapiens) (UniProt P07900)
[2] = target: J-domain protein (DnaJ) J domain (Escherichia coli) (UniProt P08622)
[3] = target: Hsp90 (Homo sapiens) (UniProt P07900); remark: listed apart in the source

Chain of J-domain protein (DnaJ) J domain (Escherichia coli) (P08622 1-75): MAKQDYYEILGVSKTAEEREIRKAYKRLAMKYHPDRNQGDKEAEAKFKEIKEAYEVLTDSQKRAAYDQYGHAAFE
Chain of Hsp70 (DnaK) (P0A6Y8 2-638): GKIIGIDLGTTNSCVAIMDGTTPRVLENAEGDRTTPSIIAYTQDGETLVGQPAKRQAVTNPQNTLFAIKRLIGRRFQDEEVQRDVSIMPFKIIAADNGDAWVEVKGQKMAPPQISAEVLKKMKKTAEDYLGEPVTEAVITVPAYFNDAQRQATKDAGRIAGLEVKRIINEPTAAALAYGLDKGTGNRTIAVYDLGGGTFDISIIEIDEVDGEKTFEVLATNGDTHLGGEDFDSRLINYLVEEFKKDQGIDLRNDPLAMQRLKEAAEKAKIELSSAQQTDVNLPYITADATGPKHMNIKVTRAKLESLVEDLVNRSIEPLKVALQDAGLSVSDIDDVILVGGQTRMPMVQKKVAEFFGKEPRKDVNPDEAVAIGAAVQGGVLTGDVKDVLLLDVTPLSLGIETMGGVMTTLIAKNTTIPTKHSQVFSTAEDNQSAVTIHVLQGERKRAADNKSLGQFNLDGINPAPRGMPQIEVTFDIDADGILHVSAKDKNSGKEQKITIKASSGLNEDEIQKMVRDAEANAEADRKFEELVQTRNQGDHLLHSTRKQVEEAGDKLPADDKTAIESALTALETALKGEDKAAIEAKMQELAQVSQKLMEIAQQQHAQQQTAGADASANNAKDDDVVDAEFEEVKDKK
Chain of p23 (Q15185 whole entry): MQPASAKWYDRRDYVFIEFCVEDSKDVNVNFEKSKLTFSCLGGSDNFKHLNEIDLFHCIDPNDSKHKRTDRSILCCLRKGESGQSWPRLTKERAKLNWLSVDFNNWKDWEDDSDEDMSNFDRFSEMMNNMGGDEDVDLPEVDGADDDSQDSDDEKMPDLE
Chain of Aha1 (O95433 whole entry): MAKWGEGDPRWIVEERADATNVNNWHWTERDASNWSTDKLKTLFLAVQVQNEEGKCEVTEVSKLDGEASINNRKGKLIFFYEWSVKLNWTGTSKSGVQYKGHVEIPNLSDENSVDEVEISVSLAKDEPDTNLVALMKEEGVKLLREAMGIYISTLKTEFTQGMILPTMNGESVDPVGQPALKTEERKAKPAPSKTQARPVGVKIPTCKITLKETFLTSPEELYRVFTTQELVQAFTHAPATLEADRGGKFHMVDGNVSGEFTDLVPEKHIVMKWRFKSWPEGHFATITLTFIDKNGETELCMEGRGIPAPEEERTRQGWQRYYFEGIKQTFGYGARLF

Aha1 (from UniProt O95433)
Kd [1]: 0.7 µM

Hsp70 (DnaK) (from UniProt P0A6Y8)
Kd [2]: 10 µM

p23 (from UniProt Q15185)
Kd [3]: 1 µM
